The results in this text go back to doi:10.1101/2025.06.27.661974 (bioRxiv, 2025).

The term stoichiometry N denotes the number of molecules, sites or subunits per partner or assembly.

This data set deals with the molecule itself. The data set can be described thus: SEC-MALS. For orientation: SEC sorts molecules by how far they enter the pores of the column.

B1: Flag-UBE2O-TwinStrep (recombinant Homo sapiens UBE2O, purified) (enzyme, human, UniProt Q9C0C9 1-1292, looked up)
chain: MADPAAPTPAAPAPAQAPAPAPEAVPAPAAAPVPAPAPASDSASGPSSDSGPEAGSQRLLFSHDLVSGRYRGSVHFGLVRLIHGEDSDSEGEEEGRGSSGCSEAGGAGHEEGRASPLRRGYVRVQWYPEGVKQHVKETKLKLEDRSVVPRDVVRHMRSTDSQCGTVIDVNIDCAVKLIGTNCIIYPVNSKDLQHIWPFMYGDYIAYDCWLGKVYDLKNQIILKLSNGARCSMNTEDGAKLYDVCPHVSDSGLFFDDSYGFYPGQVLIGPAKIFSSVQWLSGVKPVLSTKSKFRVVVEEVQVVELKVTWITKSFCPGGTDSVSPPPSVITQENLGRVKRLGCFDHAQRQLGERCLYVFPAKVEPAKIAWECPEKNCAQGEGSMAKKVKRLLKKQVVRIMSCSPDTQCSRDHSMEDPDKKGESKTKSEAESASPEETPDGSASPVEMQDEGAEEPHEAGEQLPPFLLKEGRDDRLHSAEQDADDEAADDTDDTSSVTSSASSTTSSQSGSGTSRKKSIPLSIKNLKRKHKRKKNKITRDFKPGDRVAVEVVTTMTSADVMWQDGSVECNIRSNDLFPVHHLDNNEFCPGDFVVDKRVQSCPDPAVYGVVQSGDHIGRTCMVKWFKLRPSGDDVELIGEEEDVSVYDIADHPDFRFRTTDIVIRIGNTEDGAPHKEDEPSVGQVARVDVSSKVEVVWADNSKTIILPQHLYNIESEIEESDYDSVEGSTSGASSDEWEDDSDSWETDNGLVEDEHPKIEEPPIPPLEQPVAPEDKGVVISEEAATAAVQGAVAMAAPMAGLMEKAGKDGPPKSFRELKEAIKILESLKNMTVEQLLTGSPTSPTVEPEKPTREKKFLDDIKKLQENLKKTLDNVAIVEEEKMEAVPDVERKEDKPEGQSPVKAEWPSETPVLCQQCGGKPGVTFTSAKGEVFSVLEFAPSNHSFKKIEFQPPEAKKFFSTVRKEMALLATSLPEGIMVKTFEDRMDLFSALIKGPTRTPYEDGLYLFDIQLPNIYPAVPPHFCYLSQCSGRLNPNLYDNGKVCVSLLGTWIGKGTERWTSKSSLLQVLISIQGLILVNEPYYNEAGFDSDRGLQEGYENSRCYNEMALIRVVQSMTQLVRRPPEVFEQEIRQHFSTGGWRLVNRIESWLETHALLEKAQALPNGVPKASSSPEPPAVAELSDSGQQEPEDGGPAPGEASQGSDSEGGAQGLASASRDHTDQTSETAPDASVPPSVKPKKRRKSYRSFLPEKSGYPDIGFPLFPLSKGFIKSIRGVLTQFRAALLEAGMPECTEDK
With B1, the “stoichiometry N” value turned out to be 2.
